Laboratory results from PMC5859130.

Experiments:
[1] = biological target: Ixonnexin (Ixodes scapularis) (UniProt Q4PMS3); test: SPR; Ixonnexin amine-coupled to a carboxymethylated dextran (CM5) chip, 726.2 RU; analytes injected 120 s at 30 µL/min, 25 °C, dissociation 600 s; global fit with the two-state (conformational change) model, Langmuir 1:1 for plasmin

Substance | Kd [1] [nM] | koff [1] [s⁻¹] | kon [1] [M⁻¹ s⁻¹] | ka1 (two-state, first step) [1] [M⁻¹ s⁻¹] | ka2 (two-state, conformational change) [1] [s⁻¹] | kd1 (two-state, first step) [1] [s⁻¹] | kd2 (two-state, conformational change) [1] [s⁻¹] | Km of plasmin generation (S2251) started with t-PA, with immobilized Ixonnexin (0.5 μg/ml) and increasing Glu-plasminogen (Single-chain t-PA) [µM]
Plasmin (enzyme) | 197 | 0.29 | 1.48e+06 |  |  |  |  | 
Single-chain t-PA (enzyme) | 4.67 |  |  | 413000 | 0.0097 | 0.031 | 0.0015 | 
Two-chain t-PA (enzyme) | 10.3 |  |  | 1.2e+06 | 0.011 | 0.43 | 0.0018 | 
Glu-plasminogen (natural protein) | 19.5 |  |  | 123000 | 0.022 | 0.057 | 0.00099 | 0.208
